# From IntAct's records for PubMed 12074588
# Target: nck1_human NCK1 (UniProt P16333)
row,effect of a mutation on the interaction,Substance
1,with no effect,"BDNF/NT-3 growth factors receptor (Rattus norvegicus (Rat)), Q63604 Y515F"
2,with no effect,"BDNF/NT-3 growth factors receptor (Rattus norvegicus (Rat)), Q63604 Y701F"
3,with no effect,"BDNF/NT-3 growth factors receptor (Rattus norvegicus (Rat)), Q63604 Y726F"
4,disrupting interaction strength,"BDNF/NT-3 growth factors receptor (Rattus norvegicus (Rat)), Q63604 Y706F"

# More lines, now with the values behind:
row,Substance,effect of a mutation on the interaction
1,"BDNF/NT-3 growth factors receptor (Rattus norvegicus (Rat)), Q63604 Y705F",disrupting interaction strength
2,"BDNF/NT-3 growth factors receptor (Rattus norvegicus (Rat)), Q63604 Y816F",with no effect
3,"BDNF/NT-3 growth factors receptor (Rattus norvegicus (Rat)), Q63604 K571F",disrupting interaction strength
4,"BDNF/NT-3 growth factors receptor (Rattus norvegicus (Rat)), Q63604 Y782F",disrupting interaction strength
